In the Human Domainome abundance scans (Beltran et al. 2025):
± gives the uncertainty stated by the source.

B1: Chromodomain-helicase-DNA-binding protein 3, residues 374 to 426; numbered along this chain, Q12873 (parent)
chain: YETDHQDYCEVCQQGGEIILCDTCPRAYHLVCLDPELDRAPEGKWSCPHCEKE

Variants of: B1
Experiment: abundance fitness (aPCA) (normalised: wild type 0, dead -1); higher = more abundant; growth selection in yeast, the domain comes from the species named
Settings: Homo sapiens
For P48C, the abundance fitness was -0.203 ± 0.15.
P48S showed an abundance fitness of -0.217 ± 0.11.
In the case of P48V, the abundance fitness is reported as -0.139 ± 0.11.
P48H showed an abundance fitness of -0.599 ± 0.28.
Work on P48T yielded an abundance fitness of -0.24 ± 0.16.
P48D gave an abundance fitness of -0.416 ± 0.18.
P48E gave an abundance fitness of -0.074 ± 0.14.
With P48F the abundance fitness was -0.528 ± 0.24.
Work on P48Q yielded an abundance fitness of -0.078 ± 0.2.
For P48K, the abundance fitness was -0.109 ± 0.13.
P48N showed an abundance fitness of -0.014 ± 0.18.
Work on P48M yielded an abundance fitness of -0.07 ± 0.12.
P48W gave an abundance fitness of -0.358 ± 0.14.
Variant P48G has an abundance fitness of -0.031 ± 0.097.
E42G showed an abundance fitness of 0.003 ± 0.1.
For E42S, the abundance fitness was -0.06 ± 0.12.
With E42W the abundance fitness was -0.396 ± 0.14.
E42Y gave an abundance fitness of -0.219 ± 0.16.
Work on E42C yielded an abundance fitness of -0.005 ± 0.13.
Work on E42R yielded an abundance fitness of -0.232 ± 0.11.
With E42F the abundance fitness was -0.296 ± 0.17.
E42K showed an abundance fitness of -0.181 ± 0.22.
Work on E42A yielded an abundance fitness of -0.171 ± 0.1.
In the case of E42T, the abundance fitness is reported as -0.173 ± 0.2.
E42M showed an abundance fitness of -0.203 ± 0.17.
For E42D, the abundance fitness was -0.484 ± 0.19.
E42P showed an abundance fitness of -0.138 ± 0.2.
For E42Q, the abundance fitness was -0.088 ± 0.17.
E42L gave an abundance fitness of 0.066 ± 0.1.
E42V showed an abundance fitness of -0.044 ± 0.1.
In the case of E42H, the abundance fitness is reported as 0.164 ± 0.21.
H49T showed an abundance fitness of -0.011 ± 0.23.
In the case of H49I, the abundance fitness is reported as 0.221 ± 0.39.
H49L showed an abundance fitness of -0.128 ± 0.11.
Work on H49N yielded an abundance fitness of 0.217 ± 0.29.
Variant H49Q has an abundance fitness of -0.034 ± 0.27.
In the case of H49C, the abundance fitness is reported as -0.456 ± 0.22.
For H49R, the abundance fitness was -0.143 ± 0.1.
Work on H49F yielded an abundance fitness of -0.244 ± 0.33.
In the case of H49G, the abundance fitness is reported as -0.033 ± 0.093.
With H49D the abundance fitness was -0.185 ± 0.15.
Work on H49P yielded an abundance fitness of -0.334 ± 0.24.
In the case of H49W, the abundance fitness is reported as -0.234 ± 0.14.
With H49Y the abundance fitness was -0.32 ± 0.23.
Work on H49V yielded an abundance fitness of 0.126 ± 0.12.
Variant H49E has an abundance fitness of -0.062 ± 0.17.
For H49A, the abundance fitness was -0.183 ± 0.16.
For H49M, the abundance fitness was -0.797 ± 0.45.
H49K gave an abundance fitness of -0.127 ± 0.2.
R39H showed an abundance fitness of -0.248 ± 0.25.
Work on R39I yielded an abundance fitness of 0.149 ± 0.17.
In the case of R39L, the abundance fitness is reported as -0.156 ± 0.14.
Work on R39Q yielded an abundance fitness of -0.182 ± 0.26.
R39W gave an abundance fitness of -0.2 ± 0.19.
R39T showed an abundance fitness of -0.037 ± 0.17.
R39N showed an abundance fitness of 0.034 ± 0.21.
Variant R39G has an abundance fitness of -0.123 ± 0.13.
With R39A the abundance fitness was 0.068 ± 0.14.
R39D gave an abundance fitness of -0.138 ± 0.17.
With R39M the abundance fitness was -0.009 ± 0.18.
With R39F the abundance fitness was -0.254 ± 0.14.
For R39Y, the abundance fitness was -0.027 ± 0.19.
R39V gave an abundance fitness of -0.248 ± 0.11.
R39P gave an abundance fitness of -0.084 ± 0.24.
Variant R39S has an abundance fitness of 0.01 ± 0.12.
R39C gave an abundance fitness of -0.221 ± 0.17.
In the case of G43L, the abundance fitness is reported as -0.343 ± 0.12.
With G43Y the abundance fitness was -0.277 ± 0.17.
G43D gave an abundance fitness of -0.031 ± 0.16.
For G43S, the abundance fitness was -0.043 ± 0.096.
In the case of G43M, the abundance fitness is reported as -0.039 ± 0.21.
With G43A the abundance fitness was -0.314 ± 0.15.
In the case of G43T, the abundance fitness is reported as -0.128 ± 0.18.
G43P showed an abundance fitness of 0.057 ± 0.17.
In the case of G43V, the abundance fitness is reported as 0.054 ± 0.1.
For G43K, the abundance fitness was 0.119 ± 0.19.
G43Q gave an abundance fitness of -0.001 ± 0.24.
With G43E the abundance fitness was 0.22 ± 0.15.
G43H gave an abundance fitness of -0.12 ± 0.16.
For G43C, the abundance fitness was -0.369 ± 0.13.
G43F showed an abundance fitness of -0.257 ± 0.19.
With G43N the abundance fitness was 0.204 ± 0.14.
With G43I the abundance fitness was -0.368 ± 0.21.
Variant G43R has an abundance fitness of -0.142 ± 0.088.
Variant S46W has an abundance fitness of -0.043 ± 0.17.
With S46E the abundance fitness was -0.122 ± 0.12.
S46P showed an abundance fitness of -0.327 ± 0.19.
Variant S46M has an abundance fitness of -0.186 ± 0.18.
Variant S46L has an abundance fitness of -0.033 ± 0.1.
For S46C, the abundance fitness was -0.308 ± 0.14.
S46H gave an abundance fitness of -0.526 ± 0.32.
S46I gave an abundance fitness of 0.12 ± 0.16.
S46D gave an abundance fitness of -0.135 ± 0.14.
Variant S46Q has an abundance fitness of 0.127 ± 0.18.
S46A gave an abundance fitness of -0.064 ± 0.11.
S46K gave an abundance fitness of -0.084 ± 0.17.
In the case of S46R, the abundance fitness is reported as -0.037 ± 0.097.
Variant S46Y has an abundance fitness of 0.08 ± 0.15.
For S46V, the abundance fitness was -0.085 ± 0.1.
With S46T the abundance fitness was -0.073 ± 0.14.
With S46G the abundance fitness was -0.03 ± 0.087.
Work on S46F yielded an abundance fitness of -0.104 ± 0.14.
Variant P35V has an abundance fitness of 0.029 ± 0.088.
For P35M, the abundance fitness was -0.095 ± 0.15.
Work on P35Y yielded an abundance fitness of 0.015 ± 0.17.
P35E showed an abundance fitness of -0.306 ± 0.11.
With P35L the abundance fitness was -0.11 ± 0.098.
For P35I, the abundance fitness was -0.3 ± 0.23.
P35K showed an abundance fitness of -0.183 ± 0.15.
P35H showed an abundance fitness of -0.052 ± 0.31.
With P35D the abundance fitness was 0.039 ± 0.14.
Work on P35G yielded an abundance fitness of -0.044 ± 0.1.
With P35T the abundance fitness was -0.013 ± 0.14.
P35C showed an abundance fitness of -0.117 ± 0.17.
Variant P35N has an abundance fitness of -0.196 ± 0.24.
P35W gave an abundance fitness of -0.167 ± 0.16.
Variant P35S has an abundance fitness of -0.068 ± 0.11.
K44V gave an abundance fitness of -0.39 ± 0.13.
Variant K44I has an abundance fitness of 0.363 ± 0.25.
K44L showed an abundance fitness of -0.011 ± 0.11.
Variant K44M has an abundance fitness of -0.011 ± 0.19.
K44G gave an abundance fitness of 0.101 ± 0.092.
K44W showed an abundance fitness of -0.525 ± 0.14.
K44F gave an abundance fitness of -0.136 ± 0.37.
Work on K44Q yielded an abundance fitness of 0.038 ± 0.14.
K44R showed an abundance fitness of 0.043 ± 0.1.
In the case of K44N, the abundance fitness is reported as -0.492 ± 0.45.
In the case of K44T, the abundance fitness is reported as -0.304 ± 0.18.
In the case of K44C, the abundance fitness is reported as -0.071 ± 0.14.
In the case of K44P, the abundance fitness is reported as -0.264 ± 0.16.
With K44S the abundance fitness was 0.077 ± 0.13.
For K44Y, the abundance fitness was -0.395 ± 0.26.
In the case of K44E, the abundance fitness is reported as -0.096 ± 0.13.
For K44D, the abundance fitness was -0.329 ± 0.24.
Work on C50L yielded an abundance fitness of -0.468 ± 0.11.
C50I showed an abundance fitness of -0.564 ± 0.28.
C50P gave an abundance fitness of -0.424 ± 0.16.
Variant C50V has an abundance fitness of -0.598 ± 0.12.
Variant C50K has an abundance fitness of -0.923 ± 0.23.
C50Q showed an abundance fitness of -0.57 ± 0.22.
Work on C50F yielded an abundance fitness of -0.682 ± 0.31.
Work on C50H yielded an abundance fitness of -0.291 ± 0.33.
For C50A, the abundance fitness was -0.417 ± 0.13.
Variant C50S has an abundance fitness of -0.66 ± 0.14.
C50G gave an abundance fitness of -0.383 ± 0.12.
C50D gave an abundance fitness of -0.176 ± 0.26.
Variant C50Y has an abundance fitness of -0.791 ± 0.15.
C50E showed an abundance fitness of -0.547 ± 0.16.
Work on C50W yielded an abundance fitness of -0.565 ± 0.13.
For C50N, the abundance fitness was -0.664 ± 0.38.
For E53H, the abundance fitness was -0.426 ± 0.3.
With E53G the abundance fitness was -0.118 ± 0.15.
Work on E53D yielded an abundance fitness of -0.374 ± 0.23.
For E53C, the abundance fitness was -0.584 ± 0.47.
Variant L33I has an abundance fitness of -0.214 ± 0.14.
For L33T, the abundance fitness was -0.208 ± 0.1.
Work on L33F yielded an abundance fitness of -0.449 ± 0.14.
In the case of L33M, the abundance fitness is reported as -0.148 ± 0.13.
Variant L33V has an abundance fitness of -0.182 ± 0.13.
L33Y showed an abundance fitness of -0.133 ± 0.15.
With L33G the abundance fitness was 0.07 ± 0.1.
In the case of L33N, the abundance fitness is reported as -0.326 ± 0.14.
Variant L33R has an abundance fitness of -0.39 ± 0.091.
Work on L33H yielded an abundance fitness of -0.146 ± 0.15.
L33K gave an abundance fitness of -0.663 ± 0.15.
With L33P the abundance fitness was -0.427 ± 0.12.
With L33S the abundance fitness was -0.286 ± 0.11.
